Starred links: 1 amine or outer side, 2 acyl side, 3 side chain; linkers in the order of their positions; H or OH if unused. Positions of bridges follow the written chain, without caps; N, C: chain ends. Non-standard residues stand in square brackets, D forms with d. No end group written: not given here. TATA = O=C(CC[*:1])N1CN(C(=O)CC[*:2])CN(C(=O)CC[*:3])C1; Phe(3-F) = N[C@@H](Cc1cccc(F)c1)C(=O)O; Phe(4-F) = N[C@@H](Cc1ccc(F)cc1)C(=O)O; 1Nal = N[C@@H](Cc1cccc2ccccc12)C(=O)O; β3hR = N=C(N)NCCC[C@H](N)CC(=O)O
B1: peptide 63 (bicyclic peptide without the C-terminal arginine) (peptide)
peptide: RCFRLPCRQLRC-NH2
modifications: linker 2-7-12 via TATA; N-terminus assumed
SMILES: CC(C)C[C@@H]1NC(=O)[C@H](CCC(N)=O)NC(=O)[C@H](CCCNC(=N)N)NC(=O)[C@@H]2CSCCC(=O)N3CN(CN(C3)C(=O)CCSC[C@H](NC(=O)[C@@H](N)CCCNC(=N)N)C(=O)N[C@@H](Cc3ccccc3)C(=O)N[C@@H](CCCNC(=N)N)C(=O)N[C@@H](CC(C)C)C(=O)N3CCC[C@H]3C(=O)N2)C(=O)CCSC[C@@H](C(N)=O)NC(=O)[C@H](CCCNC(=N)N)NC1=O
B2: peptide 4 (peptide 2, Phe3 to tyrosine) (peptide)
peptide: RCYRLPCRQLRCRW-NH2
modifications: linker 2-7-12 via TATA; N-terminus assumed
SMILES: CC(C)C[C@@H]1NC(=O)[C@H](CCC(N)=O)NC(=O)[C@H](CCCNC(=N)N)NC(=O)[C@@H]2CSCCC(=O)N3CN(CN(C3)C(=O)CCSC[C@H](NC(=O)[C@@H](N)CCCNC(=N)N)C(=O)N[C@@H](Cc3ccc(O)cc3)C(=O)N[C@@H](CCCNC(=N)N)C(=O)N[C@@H](CC(C)C)C(=O)N3CCC[C@H]3C(=O)N2)C(=O)CCSC[C@@H](C(=O)N[C@@H](CCCNC(=N)N)C(=O)N[C@@H](Cc2c[nH]c3ccccc23)C(N)=O)NC(=O)[C@H](CCCNC(=N)N)NC1=O
notes: Number tied to residue by the order of the list
B3: peptide 9 (peptide 2, Phe3 to proline) (peptide)
peptide: RCPRLPCRQLRCRW-NH2
modifications: linker 2-7-12 via TATA; N-terminus assumed
SMILES: CC(C)C[C@@H]1NC(=O)[C@H](CCC(N)=O)NC(=O)[C@H](CCCNC(=N)N)NC(=O)[C@@H]2CSCCC(=O)N3CN(CN(C3)C(=O)CCSC[C@H](NC(=O)[C@@H](N)CCCNC(=N)N)C(=O)N3CCC[C@H]3C(=O)N[C@@H](CCCNC(=N)N)C(=O)N[C@@H](CC(C)C)C(=O)N3CCC[C@H]3C(=O)N2)C(=O)CCSC[C@@H](C(=O)N[C@@H](CCCNC(=N)N)C(=O)N[C@@H](Cc2c[nH]c3ccccc23)C(N)=O)NC(=O)[C@H](CCCNC(=N)N)NC1=O
notes: as for B2
B4: peptide 10 (peptide 2, Arg4 to lysine) (peptide)
peptide: RCFKLPCRQLRCRW-NH2
modifications: linker 2-7-12 via TATA; N-terminus assumed
SMILES: CC(C)C[C@@H]1NC(=O)[C@H](CCC(N)=O)NC(=O)[C@H](CCCNC(=N)N)NC(=O)[C@@H]2CSCCC(=O)N3CN(CN(C3)C(=O)CCSC[C@H](NC(=O)[C@@H](N)CCCNC(=N)N)C(=O)N[C@@H](Cc3ccccc3)C(=O)N[C@@H](CCCCN)C(=O)N[C@@H](CC(C)C)C(=O)N3CCC[C@H]3C(=O)N2)C(=O)CCSC[C@@H](C(=O)N[C@@H](CCCNC(=N)N)C(=O)N[C@@H](Cc2c[nH]c3ccccc23)C(N)=O)NC(=O)[C@H](CCCNC(=N)N)NC1=O
B5: peptide 5 (peptide 2, Phe3 to leucine) (peptide)
peptide: RCLRLPCRQLRCRW-NH2
modifications: linker 2-7-12 via TATA; N-terminus assumed
SMILES: CC(C)C[C@@H]1NC(=O)[C@H](CCC(N)=O)NC(=O)[C@H](CCCNC(=N)N)NC(=O)[C@@H]2CSCCC(=O)N3CN(CN(C3)C(=O)CCSC[C@H](NC(=O)[C@@H](N)CCCNC(=N)N)C(=O)N[C@@H](CC(C)C)C(=O)N[C@@H](CCCNC(=N)N)C(=O)N[C@@H](CC(C)C)C(=O)N3CCC[C@H]3C(=O)N2)C(=O)CCSC[C@@H](C(=O)N[C@@H](CCCNC(=N)N)C(=O)N[C@@H](Cc2c[nH]c3ccccc23)C(N)=O)NC(=O)[C@H](CCCNC(=N)N)NC1=O
notes: as for B2
B6: peptide 62 (bicyclic peptide without the N-terminal arginine) (peptide)
peptide: CFRLPCRQLRCR-NH2
modifications: linker 1-6-11 via TATA; N-terminus assumed
SMILES: CC(C)C[C@@H]1NC(=O)[C@H](CCC(N)=O)NC(=O)[C@H](CCCNC(=N)N)NC(=O)[C@@H]2CSCCC(=O)N3CN(CN(C3)C(=O)CCSC[C@H](N)C(=O)N[C@@H](Cc3ccccc3)C(=O)N[C@@H](CCCNC(=N)N)C(=O)N[C@@H](CC(C)C)C(=O)N3CCC[C@H]3C(=O)N2)C(=O)CCSC[C@@H](C(=O)N[C@@H](CCCNC(=N)N)C(N)=O)NC(=O)[C@H](CCCNC(=N)N)NC1=O
B7: JS33 (rsCF^4…^bCR) (peptide)
peptide: H-[dR][dS]C[Phe(4-F)]RLPCHQL[β3hR]CR-NH2
modifications: linker 3-8-13 via TATA
SMILES: CC(C)C[C@@H]1NC(=O)[C@H](CCC(N)=O)NC(=O)[C@H](Cc2c[nH]cn2)NC(=O)[C@@H]2CSCCC(=O)N3CN(CN(C3)C(=O)CCSC[C@H](NC(=O)[C@@H](CO)NC(=O)[C@H](N)CCCNC(=N)N)C(=O)N[C@@H](Cc3ccc(F)cc3)C(=O)N[C@@H](CCCNC(=N)N)C(=O)N[C@@H](CC(C)C)C(=O)N3CCC[C@H]3C(=O)N2)C(=O)CCSC[C@@H](C(=O)N[C@@H](CCCNC(=N)N)C(N)=O)NC(=O)C[C@H](CCCNC(=N)N)NC1=O
notes: rs is D-Arg-D-Ser; F^4F is 4-fluoro-phenylalanine
B8: JS35 (rsCF^4…^bCR) (peptide)
peptide: H-[dR][dS]C[Phe(4-F)]RLPCRQL[β3hR]CR-NH2
modifications: linker 3-8-13 via TATA
SMILES: CC(C)C[C@@H]1NC(=O)[C@H](CCC(N)=O)NC(=O)[C@H](CCCNC(=N)N)NC(=O)[C@@H]2CSCCC(=O)N3CN(CN(C3)C(=O)CCSC[C@H](NC(=O)[C@@H](CO)NC(=O)[C@H](N)CCCNC(=N)N)C(=O)N[C@@H](Cc3ccc(F)cc3)C(=O)N[C@@H](CCCNC(=N)N)C(=O)N[C@@H](CC(C)C)C(=O)N3CCC[C@H]3C(=O)N2)C(=O)CCSC[C@@H](C(=O)N[C@@H](CCCNC(=N)N)C(N)=O)NC(=O)C[C@H](CCCNC(=N)N)NC1=O
B9: JS34 (rsCF^4…) (peptide)
peptide: H-[dR][dS]C[Phe(4-F)]RLPCHQLRCR-NH2
modifications: linker 3-8-13 via TATA
SMILES: CC(C)C[C@@H]1NC(=O)[C@H](CCC(N)=O)NC(=O)[C@H](Cc2c[nH]cn2)NC(=O)[C@@H]2CSCCC(=O)N3CN(CN(C3)C(=O)CCSC[C@H](NC(=O)[C@@H](CO)NC(=O)[C@H](N)CCCNC(=N)N)C(=O)N[C@@H](Cc3ccc(F)cc3)C(=O)N[C@@H](CCCNC(=N)N)C(=O)N[C@@H](CC(C)C)C(=O)N3CCC[C@H]3C(=O)N2)C(=O)CCSC[C@@H](C(=O)N[C@@H](CCCNC(=N)N)C(N)=O)NC(=O)[C@H](CCCNC(=N)N)NC1=O

Assays:
[1] = molecular target: T1, human β-FXIIa (HFXIIAB; Molecular Innovations) (human, UniProt P00748 354-362; P00748 373-615, limits assumed); assay: protease inhibition assay (Table in FIG. 6)
T1 construct: domain: catalytic domain; Bought; also called human b-FXIIa; human FXIIa
T1 sequence (P00748 373-615 limits assumed, one chain of several): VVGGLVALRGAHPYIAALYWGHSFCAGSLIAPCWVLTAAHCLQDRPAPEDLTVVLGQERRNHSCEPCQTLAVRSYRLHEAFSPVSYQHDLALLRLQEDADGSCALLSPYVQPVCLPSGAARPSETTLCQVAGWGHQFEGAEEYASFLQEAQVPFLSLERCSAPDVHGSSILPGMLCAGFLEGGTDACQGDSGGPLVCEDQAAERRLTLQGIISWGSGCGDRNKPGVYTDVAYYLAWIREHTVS

[2] = molecular target: T1, human β-FXIIa (HFXIIAB; Molecular …); assay: protease inhibition assay, fluorogenic substrate
[3] = molecular target: T1, human β-FXIIa (HFXIIAB; Molecular …); assay: protease inhibition assay
[4] = molecular target: T1, human β-FXIIa (HFXIIAB; Molecular …); assay: protease inhibition assay; remark: listed apart in the source

| Binder | Ki [1] | Ki [4] | other results |
| --- | --- | --- | --- |
| H-RC[1Nal]RLPCRQLRCRW-NH2 (linker 2-7-12 via TATA) [FXII618 variant with F in position three replaced by 1-naphthylalanine] | < 50 nM | – | – |
| B1 | – | – | Ki [2]: 28.8 nM |
| RC[Phe(3-F)]RLPCRQLRCRW-NH2 (linker 2-7-12 via TATA) [peptide 57 (peptide 2, fluorine in meta-position of Phe3)] | < 100 nM | – | – |
| B2 | < 100 nM | – | fold reduction of activity vs peptide 2 [3]: > 2 fold |
| B3 | < 100 nM | – | – |
| B4 | – | – | fold reduction of activity vs peptide 2 [3]: 10 fold; Ki [2]: 283 nM |
| B5 | < 100 nM | – | fold reduction of activity vs peptide 2 [3]: > 2 fold |
| H-RC[3‑benzothienylalanine]RLPCRQLRCRW-NH2 (linker 2-7-12 via TATA) [FXII618 variant with F in position three replaced by 3-benzothienylalanine] | < 50 nM | – | – |
| B6 | – | – | Ki [2]: 932 nM |
| H-[dR][dS]CFRLPCHQL[β3hR]CR-NH2 (linker 3-8-13 via TATA) [JS36 (rs…^bCR)] | – | 1 nM | – |
| B7 | – | 0.36 nM | – |
| B8 | – | 0.32 nM | – |
| B9 | – | 0.64 nM | – |
